Data: publication PMC3327807

Substrate: Nc1ncnc2c1ncn2[C@@H]1O[C@H](CO)[C@@H](O)[C@H]1O
Test: UV spectrophotometric deamination kinetics
Assay type: biochemical, Plasmodium vivax
Settings: zinc

B1: P. vivax adenosine deaminase (pvADA) (Plasmodium vivax Sal-1) (protein)
chain: MNILQEPIDFLKKEELKNIDLSQMSKKERYKIWKRIPKCELHCHLDLCFSADFFVSCIRKYNLQPNLSDEEVLDYYLFAKGGKSLGEFVEKAIKVADIFHDYEVIEDLAKHAVFNKYKEGVVLMEFRYSPTFVAFKYNLDIELIHQAIVKGIKEVVELLDHKIHVALMCIGDTGHEAANIKASADFCLKHKADFVGFDHGGHEVDLKEYKEIFDYVRESGVPLSVHAGEDVTLPNLNTLYSAIQVLKVERIGHGIRVAESQELIDMVKEKNILLEVCPISNVLLKNAKSMDTHPIRQLYDAGVKVSVNSDDPGMFLTNINDDYEELYTHLNFTLEDFMKMNEWALEKSFMDSNIKDKIKNLYF
Protein B1 has a Km of 71 ± 16 µM.
